The text below walks through data of patent US20090117640A1.

Common to all, as to experiment: cell-based or functional assay
The target in one experiment is hGH mutant Q141N (human) (UniProt P01241).
Experiment [1] addresses Human growth hormone (human) (UniProt P01241).
Another experiment addresses hGH mutant Q40N (human) (UniProt P01241).

Residue numbers refer to the chain shown, from its start. Numbers in names are those of the source.

Human growth hormone (human), sequence (P01241 27-217 limits assumed): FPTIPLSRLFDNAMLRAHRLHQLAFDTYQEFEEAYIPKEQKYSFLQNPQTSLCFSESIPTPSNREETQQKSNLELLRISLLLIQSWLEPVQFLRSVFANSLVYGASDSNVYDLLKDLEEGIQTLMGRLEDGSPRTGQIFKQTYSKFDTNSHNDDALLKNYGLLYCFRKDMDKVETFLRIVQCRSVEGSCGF
hGH mutant Q40N (human), sequence (P01241 27-217 Q66N): as the sequence (P01241 27-217 limits assumed) above, with Q40N counted along it
hGH mutant Q141N (human), sequence (P01241 27-217 Q167N): as the sequence (P01241 27-217 limits assumed) above, with Q141N counted along it

B1: TGase from S. mobaraense (wild type) (enzyme)
chain: DSDDRVTPPAEPLDRMPDPYRPSYGRAETVVNNYIRKWQQVYSHRDGRKQQMTEEQREWLSYGCVGVTWVNSGQYPTNRLAFASFDEDRFKNELKNGRPRSGETRAEFEGRVAKESFDEEKGFQRAREVASVMNRALENAHDESAYLDNLKKELANGNDALRNEDARSPFYSALRNTPSFKERNGGNHDPSRMKAVIYSKHFWSGQDRSSSADKRKYGDPDAFRPAPGTGLVDMSRDRNIPRSPTSPGEGFVNFDYGWFGAQTEADADKTVWTHGNHYHAPNGSLGAMHVYESKFRNWSEGYSDFDRGAYVITFIPKSWNTAPDKVKQGWP
On to B1, for which, in the experiment with hGH mutant Q141N (human), the Gln 40 vs Gln 141 (normalized), Gln 40 share (normalized ratio) was 21 and the HPLC peak area of remaining hGH-Q141N (area (arbitrary units)) came to 1290. In experiment [1], this molecule returned an About 50% hGH reacted at t=, enzyme 0.07 µM (min (printed in h and min)) of 75; a Transamination Gln 40 vs Gln 141 (Gln 40 share), CE, enzyme 0.07 µM (share of mono-transamination products) of 15; a Transamination Gln 40 vs Gln 141 (Gln 141 share), CE, enzyme 0.07 µM (share of mono-transamination products) of 85. Besides, in the experiment with hGH mutant Q40N (human), the Gln 40 vs Gln 141 (normalized), Gln 141 share (normalized ratio) was found to be 79 and the HPLC peak area of remaining hGH-Q40N (area (arbitrary units)) was 519.

B2: Y302R TGase (enzyme)
chain: B1 chain with Y302R
For B2, in experiment [1], the About 50% hGH reacted at t=, enzyme 0.39 µM was found to be 30 min; the Transamination Gln 40 vs Gln 141 (Gln 40 share), CE, enzyme 0.39 µM (share of mono-transamination products) was 30; the Transamination Gln 40 vs Gln 141 (Gln 141 share), CE, enzyme 0.39 µM (share of mono-transamination products) was 70.

B3: Y75E TGase (enzyme)
chain: B1 chain with Y75E
In the case of B3, in experiment [1], the About 50% hGH reacted at t=, enzyme 3.90 µM is less than 30 min; the Transamination Gln 40 vs Gln 141 (Gln 40 share), CE, enzyme 3.90 µM (share of mono-transamination products) came to 45; the Transamination Gln 40 vs Gln 141 (Gln 141 share), CE, enzyme 3.90 µM (share of mono-transamination products) turned out to be 55.

B4: Y75E, Y302R TGase (enzyme)
chain: B1 chain with Y75E, Y302R
In experiment [1], B4 displayed an About 50% hGH reacted at t=, enzyme 7.20 µM (min (printed in h and min)) of 90; a Transamination Gln 40 vs Gln 141 (Gln 40 share), CE, enzyme 7.20 µM (share of mono-transamination products) of 65; a Transamination Gln 40 vs Gln 141 (Gln 141 share), CE, enzyme 7.20 µM (share of mono-transamination products) of 35.

B5: TGase from Streptoverticillium ladakanum (enzyme)
chain: DSDERVTPPAEPLDRMPDPYRPSYGRAETIVNNYIRKWQQVYSHRDGRKQQMTEEQREWLSYGCVGVTWVNSGQYPTNRLAFAFFDEDKYKNELKNGRPRSGETRAEFEGRVAKDSFDEAKGFQRARDVASVMNKALENAHDEGAYLDNLKKELANGNDALRNEDARSPFYSALRNTPSFKDRNGGNHDPSKMKAVIYSKHFWSGQDRSGSSDKRKYGDPEAFRPDRGTGLVDMSRDRNIPRSPTSPGESFVNFDYGWFGAQTEADADKTVWTHGNHYHAPNGSLGAMHVYESKFRNWSDGYSDFDRGAYVVTFVPKSWNTAPDKVKQGWP
Turning to B5, in the experiment with hGH mutant Q141N (human), the Gln 40 vs Gln 141 (normalized), Gln 40 share (normalized ratio) is 11 and the HPLC peak area of remaining hGH-Q141N (area (arbitrary units)) worked out at 1160. In the experiment with hGH mutant Q40N (human), the Gln 40 vs Gln 141 (normalized), Gln 141 share (normalized ratio) amounted to 89 and the HPLC peak area of remaining hGH-Q40N (area (arbitrary units)) is 375.
